Here are results for 21 molecules from US20160046944, “APTAMER TO IL-17 AND USE THEREOF” (THE UNIVERSITY OF TOKYO, published 2016).

Sequences and labels used below:
B1: aptamer No. 58 (mixed)
mixed: GGGUAGCCGGAGGAGTCAGTAAUCGGUACCC
modifications: 2'-OMe (M), 2'-F (F), PS (S) as marked; uppercase DNA [2'-OMe: 1,2,3,4,7,8,10,13,14,19,21,22,23,24,25,26,28; 2'-F: 11,17,18,27; PS: 6,12,15]
B2: aptamer No. 63 (mixed)
mixed: GGGUAGCCGGAGGAGTCAGTAAUCGGUACCC
modifications: 2'-OMe (M), 2'-F (F), PS (S) as marked; uppercase DNA [2'-OMe: 1,2,3,4,5,7,8,10,13,14,21,22,23,24,25,26,28,29,30,31; 2'-F: 11,17,18,27; PS: 6,15,19]
B3: aptamer No. 76 (mixed)
RNA: GGGUAGCCGGAGGAGUCAGUAAUCGGUACCC
modifications: 2'-OMe (M), 2'-F (F) as marked; uppercase DNA [2'-OMe: 1-5,7,8,10,13,14,21-26,29-31; 2'-F: 11,16,17,18,20,27]
B4: aptamer No. 68 (mixed)
RNA: GGGUAGCCGGAGGAGUCAGUAAUCGGUACCC
modifications: 2'-OMe (M), 2'-F (F), PS (S) as marked; uppercase DNA [2'-OMe: 1-5,7,8,10,13,14,21-26,29-31; 2'-F: 11,16,17,18,20,27; PS: 6,15,19]
B5: aptamer No. 81 (mixed)
mixed: GGGUAGCCGGAGGAGTCAGTAAUCGGUACCC
modifications: 2'-OMe (M), 2'-F (F), PS (S) as marked; uppercase DNA [2'-OMe: 1-5,7,8,10,11,13,14,17,21-31; 2'-F: 18; PS: 6,15,19; DNA: 9,16,20]
B6: aptamer No. 87 (mixed)
mixed: GGGUAGCCGGAGGAGTCAGTGAUCGGUACCC
modifications: 2'-OMe (M), 2'-F (F), PS (S) as marked; uppercase DNA [2'-OMe: 1-5,7,8,10,11,13,14,17,22-31; 2'-F: 18; PS: 6,15,19; DNA: 9,16,20]
B7: aptamer No. 78 (mixed)
mixed: GGGUAGCCGGAGGAGTCAGTAAUCGGUACCC
modifications: 2'-OMe (M), 2'-F (F) as marked; uppercase DNA [2'-OMe: 1-5,7,8,10,13,14,21-31; 2'-F: 11,17,18; DNA: 9,16,20]
B8: aptamer No. 84 (mixed)
RNA: GGGUAGCCGGAGGAGUCAGUAAUCGGUACCC
modifications: 2'-OMe (M), 2'-F (F), PS (S) as marked; uppercase DNA [2'-OMe: 1-5,7,8,10,11,13,14,21-31; 2'-F: 16,17,18,20; PS: 6,15,19; DNA: 9]
B9: aptamer No. 69 (mixed)
RNA: GGGUAGCCGGAGGAGUCAGUAAUCGGUACCC
modifications: 2'-OMe (M), 2'-F (F), PS (S) as marked; uppercase DNA [2'-OMe: 1-5,7,8,10,13,14,21-26,28-31; 2'-F: 11,16,17,18,20,27; PS: 6]
B10: aptamer No. 85 (mixed)
RNA: GGGUAGCCGGAGGAGUCAGUAAUCGGUACCC
modifications: 2'-OMe (M), 2'-F (F), PS (S) as marked; uppercase DNA [2'-OMe: 1-5,7,8,10,11,13,14,21-26,28-31; 2'-F: 16,17,18,20,27; PS: 6,15,19; DNA: 9]
B11: aptamer No. 52 (mixed)
mixed: GGGUAGCCGGAGGAGTCAGTAAUCGGUACCC
modifications: 2'-OMe (M), 2'-F (F), PS (S) as marked; uppercase DNA [2'-OMe: 1-4,7,8,10,13,14,21-26,28; 2'-F: 11,17,18,27; PS: 6,15]
B12: aptamer No. 56 (mixed)
mixed: GGGUAGCCGGAGGAGTCAGTAAUCGGUACCC
modifications: 2'-OMe (M), 2'-F (F), PS (S) as marked; uppercase DNA [2'-OMe: 1,2,3,4,7,8,10,13,14,21,22,23,24,25,26,28; 2'-F: 11,17,18,27; PS: 6,15,19]
B13: aptamer No. 66 (mixed)
mixed: GGGUAGCCGGAGGAGTCAGTAAUCGGUACCC
modifications: 2'-OMe (M), 2'-F (F), PS (S) as marked; uppercase DNA [2'-OMe: 1-5,7,8,10,13,14,21-31; 2'-F: 11,17,18; PS: 6,15,19]
B14: aptamer No. 92 (mixed)
RNA: GGGUAGCCGGAGGAGUCAGUAAUCGGUACCC
modifications: 2'-OMe (M), 2'-F (F), PS (S) as marked; uppercase DNA [2'-OMe: 1-5,7,8,10,11,13,14,22-26,28-31; 2'-F: 16-18,20,27; PS: 6,15,19; DNA: 9]
B15: aptamer No. 79 (ssRNA)
RNA: GGGUAGCCGGAGGAGUCAGUAAUCGGUACCC
modifications: 2'-OMe (M), 2'-F (F) as marked [2'-OMe: 1-5,7,8,10,13,14,21-31; 2'-F: 11,16,17,18,20]
B16: aptamer No. 54 (mixed)
RNA: GGGUAGCCGGAGGAGUCAGUAAUCGGUACCC
modifications: 2'-OMe (M), 2'-F (F), PS (S) as marked; uppercase DNA (U = deoxyuridine) [2'-OMe: 1,2,3,4,7,8,10,13,14,21,22,23,24,25,26,28; 2'-F: 11,17,18,27; PS: 6; dU: 16,20]
B17: aptamer No. 59 (mixed)
mixed: GGGUAGCCGGAGGAGTCAGTAAUCGGUACCC
modifications: 2'-OMe (M), 2'-F (F), PS (S) as marked; uppercase DNA [2'-OMe: 1,2,3,4,7,8,10,13,14,19,21,22,23,24,25,26,28,29,30,31; 2'-F: 11,17,18,27; PS: 6,15]
B18: aptamer No. 90 (mixed)
mixed: GGGUAGCCGGAGGAGTCAGTAAUCGGUACCC
modifications: 2'-OMe (M), 2'-F (F), PS (S) as marked; uppercase DNA [2'-OMe: 1-5,7,8,10,11,13,14,17,21,23-31; 2'-F: 18; PS: 6,15,19; DNA: 9,16,20]
B19: aptamer No. 65 (mixed)
mixed: GGGUAGCCGGAGGAGTCAGTAAUCGGUACCC
modifications: 2'-OMe (M), 2'-F (F), PS (S) as marked; uppercase DNA [2'-OMe: 1-5,7,8,10,13,14,21-31; 2'-F: 11,17,18; PS: 6]
B20: aptamer No. 64 (mixed)
mixed: GGGUAGCCGGAGGAGTCAGTAAUCGGUACCC
modifications: 2'-OMe (M), 2'-F (F), PS (S) as marked; uppercase DNA [2'-OMe: 1,2,3,4,5,7,8,10,13,14,17,21,22,23,24,25,26,28,29,30,31; 2'-F: 11,18,27; PS: 6,15,19]
B21: aptamer No. 82 (mixed)
mixed: GGGUAGCCGGAGGAGTCAGTAAUCGGUACCC
modifications: 2'-OMe (M), 2'-F (F), PS (S) as marked; uppercase DNA [2'-OMe: 1-5,7,8,10,11,13,14,21-31; 2'-F: 17,18; PS: 6,15,19; DNA: 9,16,20]

The data set concerns the target T1, IL-17 (Homo sapiens, UniProt Q16552 Q16552:24-155).
T1 sequence: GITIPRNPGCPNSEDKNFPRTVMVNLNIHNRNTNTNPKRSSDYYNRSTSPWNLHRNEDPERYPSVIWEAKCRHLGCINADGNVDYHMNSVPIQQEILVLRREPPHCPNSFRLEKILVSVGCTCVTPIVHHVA
The data set can be described thus: SPR; IL-17 150 nM, aptamer 12.5 or 50 nM. Particulars: chain copies: 2. The protocol: Whether the synthesized aptamers inhibit the binding of IL-17 and IL-17 receptor was evaluated by the surface plasmon resonance method.
For the measurement, BIAcore T100 manufactured by GE Healthcare Bio Sciences was used. […] As an analyte, IL-17 (150 nM) and each aptamer (12.5 or 50 nM) shown by Table 3 were mixed, maintained for 15 min and after that the mixture was flown.
Consider B1, for which the binding signal is 33.7 % IL-17/IL-17R binding remaining. The value for B2 was 27.1 % IL-17/IL-17R binding remaining; that for B3 was 24.1 % IL-17/IL-17R binding remaining. The value for B4 was 37 % IL-17/IL-17R binding remaining. Consider B5, for which the binding signal was 34.3 % IL-17/IL-17R binding remaining. Next, B6: 32.4 % IL-17/IL-17R binding remaining. Next, B7: 23.3 % IL-17/IL-17R binding remaining; B8: 27.7 % IL-17/IL-17R binding remaining; B9: 18.4 % IL-17/IL-17R binding remaining. The value for B10 was 27.8 % IL-17/IL-17R binding remaining; that for B11 was 27.6 % IL-17/IL-17R binding remaining.

For the molecule B12, the binding signal is 27 % IL-17/IL-17R binding remaining. Next, B13: 28.7 % IL-17/IL-17R binding remaining; B14: 31.6 % IL-17/IL-17R binding remaining. The value for B15 was 28.2 % IL-17/IL-17R binding remaining; that for B16 was 25.1 % IL-17/IL-17R binding remaining. The value for B17 was 36.5 % IL-17/IL-17R binding remaining; that for B18 was 41.2 % IL-17/IL-17R binding remaining; that for B19 was 20.3 % IL-17/IL-17R binding remaining.

Turning to B20, the binding signal was 29.3 % IL-17/IL-17R binding remaining.

Regarding B21, the binding signal is 5.28 % IL-17/IL-17R binding remaining.
